Assay results from the supplement of paper PMC10065799, “High-throughput profiling of sequence recognition by tyrosine kinases and SH2 domains using bacterial peptide display” (eLife, 2023).

Each sequence was assayed against Fyn (UniProt P06241) (assay: phosphorylation enrichment, bacterial display (enrichment ratio); higher = better substrate or ligand; peptides without Tyr show the background).
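Note: 11-residue human phosphosite peptides and single-mutation variants displayed on the E. coli surface, counted by deep sequencing, each peptide's frequency after selection divided by its frequency in the unselected input library; frequency after pTyr selection over input frequency; kinase dosed for 20-30% of maximal phosphorylation in three min.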

Sequence of Fyn (P06241 whole entry, looked up): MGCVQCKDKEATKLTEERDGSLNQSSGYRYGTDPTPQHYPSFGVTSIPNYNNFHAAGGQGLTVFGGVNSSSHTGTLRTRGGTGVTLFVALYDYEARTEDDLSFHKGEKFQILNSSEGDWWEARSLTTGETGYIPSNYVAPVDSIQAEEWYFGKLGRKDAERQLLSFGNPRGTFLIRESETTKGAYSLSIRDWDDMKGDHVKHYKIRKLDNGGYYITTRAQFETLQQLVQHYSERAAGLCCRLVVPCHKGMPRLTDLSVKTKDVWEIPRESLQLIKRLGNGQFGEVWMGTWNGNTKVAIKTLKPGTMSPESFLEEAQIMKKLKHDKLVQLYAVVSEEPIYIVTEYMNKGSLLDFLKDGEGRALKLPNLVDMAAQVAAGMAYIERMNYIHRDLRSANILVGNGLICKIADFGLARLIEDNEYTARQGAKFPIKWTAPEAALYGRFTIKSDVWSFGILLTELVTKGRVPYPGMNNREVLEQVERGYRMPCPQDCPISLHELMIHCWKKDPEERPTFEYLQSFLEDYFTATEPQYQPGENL

First: QKFMAYLSQGG [HLCS_Y236]
Second: LSIDRYHAIVY [NPSR1_Y147]
The phosphorylation enrichment of the first is higher: 1.2 for the first, 0.546 for the second.

Compared with TEAEPYFRSLR [NPHS1_Y1138_YF], GCRSKHVGLWG [KCNQ1_Y184_Y184H] is lower in phosphorylation enrichment: 0.557 for the first, 0.385 for the second.

Going from PINLYYLMDLS [ITGB2_Y131_D128N] to HIAKVYRRDNP [HARS1_Y156], the phosphorylation enrichment falls from 4.6 to 0.775.

First: FRSSLYLLMET [MYO5C_Y633]
Second: IEDPYYGNDSD [ACP1_Y133]
The phosphorylation enrichment of the first is lower: 0.473 for the first, 0.81 for the second.

Going from ISGGGYRACPA [FGB_Y71_R74C] to IRRSSYEDSSL [HNF4A_Y144_T139I], the phosphorylation enrichment rises from 0.44 to 0.481.

Compared with FADIAYNFRRG [PAH_Y166_H170R_YF], RLLRGYNQSAY [HLA-C_Y137_D138N] is higher in phosphorylation enrichment: 0.409 for the first, 0.41 for the second.

First: ASTDFYKRGDF [PDHA1_Y243_YF]
Second: RGFRQYAFDGK [HLA-A_Y140_D140Y_YF]
The phosphorylation enrichment of the first is lower: 0.325 for the first, 0.546 for the second.

Going from EEEYEYMNRRR [ERBB3_Y1199_D1194E] to DLDFTYIFPNI [PTEN_Y27_L25F_YF], the phosphorylation enrichment rises from 0.332 to 4.4.

First: RPGGRYPVARR [SHANK3_Y1569_S1566G]
Second: LKVDVYRRSHK [FUT3_Y222_G223R]
The phosphorylation enrichment of the first is higher: 0.647 for the first, 0.44 for the second.

Compared with QDRDLYPCPGT [RLF_Y671], KLQKKYGPIYS [CYP17A1_Y60] is higher in phosphorylation enrichment: 0.936 for the first, 1.59 for the second.

Compared with TQPSPYAVYRF [RPGRIP1_Y823], TDRNLYSKNLV [CFAP58_Y501_S496T] is lower in phosphorylation enrichment: 11.5 for the first, 0.465 for the second.

First: EVTLTYATGIK [NFKB1_Y485_T489I]
Second: QYRFIYMAVQH [PTPN11_Y515]
The phosphorylation enrichment of the first is lower: 0.477 for the first, 1.82 for the second.

Compared with ILKPDYQPLAI [HYDIN_Y1072], LVMFTYAIFGM [SCN1A_Y1684_I1683T] is higher in phosphorylation enrichment: 0.415 for the first, 2.15 for the second.

Compared with KKFPDYIQSAM [SGMS2_Y59_I62S_YF], KKGIVYVFNGR [ITGAV_Y404_I405V] is higher in phosphorylation enrichment: 0.401 for the first, 0.477 for the second.

Compared with SETDDYAEIIV [PTK2_Y397_D402V], EKIANYKEGTF [CLRN1_Y171_YF] is lower in phosphorylation enrichment: 0.519 for the first, 0.465 for the second.

Compared with IIEDPYYGNDS [ACP1_Y132], PEVCDYGLGGG [GSTO1_Y239_A236V] is higher in phosphorylation enrichment: 0.958 for the first, 0.965 for the second.

With LLINKYGLSAH [SCP2_Y151] the phosphorylation enrichment was 0.443.

The sequences below were run against Jak2 (UniProt O60674) in the same assay as above.
Sequence of Jak2 (O60674 whole entry, looked up): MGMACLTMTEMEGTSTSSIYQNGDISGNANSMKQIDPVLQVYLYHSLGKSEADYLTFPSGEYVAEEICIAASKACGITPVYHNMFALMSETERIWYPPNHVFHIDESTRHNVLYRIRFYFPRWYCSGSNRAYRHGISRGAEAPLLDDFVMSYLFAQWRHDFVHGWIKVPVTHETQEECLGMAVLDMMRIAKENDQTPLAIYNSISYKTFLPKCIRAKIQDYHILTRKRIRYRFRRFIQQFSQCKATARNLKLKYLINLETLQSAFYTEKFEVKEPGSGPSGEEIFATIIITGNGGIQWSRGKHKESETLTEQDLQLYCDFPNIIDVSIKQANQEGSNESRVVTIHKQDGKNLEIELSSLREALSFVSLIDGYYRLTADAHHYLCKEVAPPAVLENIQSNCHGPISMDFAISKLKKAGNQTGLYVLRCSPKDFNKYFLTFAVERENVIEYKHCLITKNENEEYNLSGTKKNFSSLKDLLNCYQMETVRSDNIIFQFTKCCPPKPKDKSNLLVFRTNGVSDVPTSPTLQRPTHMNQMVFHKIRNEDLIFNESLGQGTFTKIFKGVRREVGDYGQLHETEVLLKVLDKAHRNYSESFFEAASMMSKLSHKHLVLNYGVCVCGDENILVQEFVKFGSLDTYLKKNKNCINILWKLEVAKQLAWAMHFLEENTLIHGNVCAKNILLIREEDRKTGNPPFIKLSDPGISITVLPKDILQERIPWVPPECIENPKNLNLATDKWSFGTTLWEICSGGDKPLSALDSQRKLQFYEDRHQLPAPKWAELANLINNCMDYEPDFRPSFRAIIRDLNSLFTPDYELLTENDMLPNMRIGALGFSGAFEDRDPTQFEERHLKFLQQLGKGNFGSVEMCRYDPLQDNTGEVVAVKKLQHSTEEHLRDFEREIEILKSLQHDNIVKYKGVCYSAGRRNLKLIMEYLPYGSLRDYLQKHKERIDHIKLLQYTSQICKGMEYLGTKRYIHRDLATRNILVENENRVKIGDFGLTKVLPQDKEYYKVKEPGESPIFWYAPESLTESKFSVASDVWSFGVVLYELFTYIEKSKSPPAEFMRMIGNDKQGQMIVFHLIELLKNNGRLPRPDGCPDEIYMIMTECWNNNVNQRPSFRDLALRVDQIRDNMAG

Compared with QKFMAYLSQGG [HLCS_Y236], LSIDRYHAIVY [NPSR1_Y147] is higher in phosphorylation enrichment: 0.945 for the first, 1.65 for the second.

Compared with TEAEPYFRSLR [NPHS1_Y1138_YF], GCRSKHVGLWG [KCNQ1_Y184_Y184H] is lower in phosphorylation enrichment: 0.843 for the first, 0.409 for the second.

Going from PINLYYLMDLS [ITGB2_Y131_D128N] to HIAKVYRRDNP [HARS1_Y156], the phosphorylation enrichment falls from 6.89 to 0.659.

Going from FRSSLYLLMET [MYO5C_Y633] to IEDPYYGNDSD [ACP1_Y133], the phosphorylation enrichment rises from 1.29 to 1.35.

Going from ISGGGYRACPA [FGB_Y71_R74C] to IRRSSYEDSSL [HNF4A_Y144_T139I], the phosphorylation enrichment rises from 0.61 to 0.65.

Compared with FADIAYNFRRG [PAH_Y166_H170R_YF], RLLRGYNQSAY [HLA-C_Y137_D138N] is lower in phosphorylation enrichment: 0.602 for the first, 0.307 for the second.

Compared with ASTDFYKRGDF [PDHA1_Y243_YF], RGFRQYAFDGK [HLA-A_Y140_D140Y_YF] is lower in phosphorylation enrichment: 0.749 for the first, 0.381 for the second.

Going from EEEYEYMNRRR [ERBB3_Y1199_D1194E] to DLDFTYIFPNI [PTEN_Y27_L25F_YF], the phosphorylation enrichment rises from 0.882 to 1.83.

Going from RPGGRYPVARR [SHANK3_Y1569_S1566G] to LKVDVYRRSHK [FUT3_Y222_G223R], the phosphorylation enrichment rises from 0.478 to 1.78.

Compared with QDRDLYPCPGT [RLF_Y671], KLQKKYGPIYS [CYP17A1_Y60] is lower in phosphorylation enrichment: 1.1 for the first, 0.378 for the second.

First: TQPSPYAVYRF [RPGRIP1_Y823]
Second: TDRNLYSKNLV [CFAP58_Y501_S496T]
The phosphorylation enrichment of the first is higher: 0.898 for the first, 0.758 for the second.

First: EVTLTYATGIK [NFKB1_Y485_T489I]
Second: QYRFIYMAVQH [PTPN11_Y515]
The phosphorylation enrichment of the first is lower: 1.06 for the first, 1.21 for the second.

Going from ILKPDYQPLAI [HYDIN_Y1072] to LVMFTYAIFGM [SCN1A_Y1684_I1683T], the phosphorylation enrichment rises from 0.556 to 2.23.

Compared with KKFPDYIQSAM [SGMS2_Y59_I62S_YF], KKGIVYVFNGR [ITGAV_Y404_I405V] is higher in phosphorylation enrichment: 0.512 for the first, 0.73 for the second.

First: SETDDYAEIIV [PTK2_Y397_D402V]
Second: EKIANYKEGTF [CLRN1_Y171_YF]
The phosphorylation enrichment of the first is higher: 1.09 for the first, 0.724 for the second.

First: IIEDPYYGNDS [ACP1_Y132]
Second: PEVCDYGLGGG [GSTO1_Y239_A236V]
The phosphorylation enrichment of the first is higher: 1.33 for the first, 1.03 for the second.

For LLINKYGLSAH [SCP2_Y151], the phosphorylation enrichment was 0.838.

The sequences below were run against FGFR3 (UniProt P22607) in the same assay as above.
Sequence of FGFR3 (P22607 whole entry, looked up): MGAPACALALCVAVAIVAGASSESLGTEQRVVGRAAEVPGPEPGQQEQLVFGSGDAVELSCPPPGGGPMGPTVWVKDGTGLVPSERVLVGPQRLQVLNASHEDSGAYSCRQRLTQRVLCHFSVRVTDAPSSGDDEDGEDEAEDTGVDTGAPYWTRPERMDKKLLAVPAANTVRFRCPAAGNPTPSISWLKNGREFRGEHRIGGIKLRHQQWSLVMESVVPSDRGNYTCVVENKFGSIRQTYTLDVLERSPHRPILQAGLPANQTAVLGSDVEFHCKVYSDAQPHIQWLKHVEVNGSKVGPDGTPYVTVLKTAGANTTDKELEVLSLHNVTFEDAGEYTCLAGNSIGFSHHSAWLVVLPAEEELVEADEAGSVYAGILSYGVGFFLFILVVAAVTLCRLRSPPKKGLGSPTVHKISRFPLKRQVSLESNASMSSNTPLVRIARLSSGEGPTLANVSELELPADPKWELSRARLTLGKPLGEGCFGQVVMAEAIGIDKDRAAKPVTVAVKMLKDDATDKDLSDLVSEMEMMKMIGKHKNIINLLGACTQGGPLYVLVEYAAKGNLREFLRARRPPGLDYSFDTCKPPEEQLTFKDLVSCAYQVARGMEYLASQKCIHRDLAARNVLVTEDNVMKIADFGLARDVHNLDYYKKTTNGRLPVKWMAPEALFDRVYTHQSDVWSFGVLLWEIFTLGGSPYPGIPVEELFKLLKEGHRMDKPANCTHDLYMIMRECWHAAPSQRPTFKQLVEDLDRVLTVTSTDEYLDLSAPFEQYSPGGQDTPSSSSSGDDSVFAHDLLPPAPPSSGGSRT

First: QKFMAYLSQGG [HLCS_Y236]
Second: LSIDRYHAIVY [NPSR1_Y147]
The phosphorylation enrichment of the first is lower: 0.64 for the first, 1.87 for the second.

Compared with TEAEPYFRSLR [NPHS1_Y1138_YF], GCRSKHVGLWG [KCNQ1_Y184_Y184H] is lower in phosphorylation enrichment: 0.639 for the first, 0.388 for the second.

First: PINLYYLMDLS [ITGB2_Y131_D128N]
Second: HIAKVYRRDNP [HARS1_Y156]
The phosphorylation enrichment of the first is higher: 15.7 for the first, 0.772 for the second.

Going from FRSSLYLLMET [MYO5C_Y633] to IEDPYYGNDSD [ACP1_Y133], the phosphorylation enrichment falls from 1.16 to 1.09.

First: ISGGGYRACPA [FGB_Y71_R74C]
Second: IRRSSYEDSSL [HNF4A_Y144_T139I]
The phosphorylation enrichment of the first is higher: 0.52 for the first, 0.487 for the second.

Going from FADIAYNFRRG [PAH_Y166_H170R_YF] to RLLRGYNQSAY [HLA-C_Y137_D138N], the phosphorylation enrichment falls from 0.539 to 0.499.

Going from ASTDFYKRGDF [PDHA1_Y243_YF] to RGFRQYAFDGK [HLA-A_Y140_D140Y_YF], the phosphorylation enrichment rises from 0.431 to 0.779.

First: EEEYEYMNRRR [ERBB3_Y1199_D1194E]
Second: DLDFTYIFPNI [PTEN_Y27_L25F_YF]
The phosphorylation enrichment of the first is lower: 0.583 for the first, 2.27 for the second.

Compared with RPGGRYPVARR [SHANK3_Y1569_S1566G], LKVDVYRRSHK [FUT3_Y222_G223R] is higher in phosphorylation enrichment: 0.599 for the first, 0.85 for the second.

Compared with QDRDLYPCPGT [RLF_Y671], KLQKKYGPIYS [CYP17A1_Y60] is lower in phosphorylation enrichment: 0.878 for the first, 0.438 for the second.

Going from TQPSPYAVYRF [RPGRIP1_Y823] to TDRNLYSKNLV [CFAP58_Y501_S496T], the phosphorylation enrichment falls from 0.795 to 0.531.

Going from EVTLTYATGIK [NFKB1_Y485_T489I] to QYRFIYMAVQH [PTPN11_Y515], the phosphorylation enrichment rises from 0.634 to 1.48.

Going from ILKPDYQPLAI [HYDIN_Y1072] to LVMFTYAIFGM [SCN1A_Y1684_I1683T], the phosphorylation enrichment rises from 0.533 to 1.73.

Compared with KKFPDYIQSAM [SGMS2_Y59_I62S_YF], KKGIVYVFNGR [ITGAV_Y404_I405V] is higher in phosphorylation enrichment: 0.471 for the first, 0.538 for the second.

Going from SETDDYAEIIV [PTK2_Y397_D402V] to EKIANYKEGTF [CLRN1_Y171_YF], the phosphorylation enrichment falls from 1.2 to 0.537.

Going from IIEDPYYGNDS [ACP1_Y132] to PEVCDYGLGGG [GSTO1_Y239_A236V], the phosphorylation enrichment falls from 0.869 to 0.803.

With LLINKYGLSAH [SCP2_Y151] the phosphorylation enrichment was 0.708.

These sequences were tested against EPHB1 (UniProt P54762) in the same assay as above.
Sequence of EPHB1 (P54762 whole entry, looked up): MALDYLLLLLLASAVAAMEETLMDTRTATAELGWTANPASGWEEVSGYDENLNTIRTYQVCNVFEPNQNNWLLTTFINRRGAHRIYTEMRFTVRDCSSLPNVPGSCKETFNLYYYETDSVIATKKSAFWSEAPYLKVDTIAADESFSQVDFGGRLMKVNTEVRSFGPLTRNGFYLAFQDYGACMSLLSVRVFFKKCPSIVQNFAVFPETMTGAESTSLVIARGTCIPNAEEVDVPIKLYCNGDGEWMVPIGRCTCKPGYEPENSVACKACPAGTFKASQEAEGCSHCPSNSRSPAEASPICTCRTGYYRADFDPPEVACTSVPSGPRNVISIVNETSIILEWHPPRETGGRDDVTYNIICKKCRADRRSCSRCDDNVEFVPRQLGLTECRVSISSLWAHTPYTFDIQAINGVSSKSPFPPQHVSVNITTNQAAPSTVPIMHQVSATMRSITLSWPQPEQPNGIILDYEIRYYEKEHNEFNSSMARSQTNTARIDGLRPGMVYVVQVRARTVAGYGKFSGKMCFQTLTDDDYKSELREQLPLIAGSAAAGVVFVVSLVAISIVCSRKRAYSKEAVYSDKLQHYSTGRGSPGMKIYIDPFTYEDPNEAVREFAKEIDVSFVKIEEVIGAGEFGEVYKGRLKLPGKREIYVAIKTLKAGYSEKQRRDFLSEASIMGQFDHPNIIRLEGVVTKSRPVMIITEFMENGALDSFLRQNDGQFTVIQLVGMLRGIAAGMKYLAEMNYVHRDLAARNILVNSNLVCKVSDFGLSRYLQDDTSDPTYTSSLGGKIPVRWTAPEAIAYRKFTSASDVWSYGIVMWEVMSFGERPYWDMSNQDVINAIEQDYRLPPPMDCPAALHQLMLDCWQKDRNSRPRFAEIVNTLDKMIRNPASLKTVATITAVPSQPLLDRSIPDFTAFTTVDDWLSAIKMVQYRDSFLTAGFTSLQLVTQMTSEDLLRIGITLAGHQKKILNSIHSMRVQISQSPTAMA

Compared with QKFMAYLSQGG [HLCS_Y236], LSIDRYHAIVY [NPSR1_Y147] is lower in phosphorylation enrichment: 0.731 for the first, 0.438 for the second.

First: TEAEPYFRSLR [NPHS1_Y1138_YF]
Second: GCRSKHVGLWG [KCNQ1_Y184_Y184H]
The phosphorylation enrichment of the first is higher: 0.448 for the first, 0.316 for the second.

Compared with PINLYYLMDLS [ITGB2_Y131_D128N], HIAKVYRRDNP [HARS1_Y156] is lower in phosphorylation enrichment: 8.27 for the first, 0.36 for the second.

Compared with FRSSLYLLMET [MYO5C_Y633], IEDPYYGNDSD [ACP1_Y133] is lower in phosphorylation enrichment: 0.804 for the first, 0.638 for the second.

First: ISGGGYRACPA [FGB_Y71_R74C]
Second: IRRSSYEDSSL [HNF4A_Y144_T139I]
The phosphorylation enrichment of the first is higher: 0.51 for the first, 0.444 for the second.

Going from FADIAYNFRRG [PAH_Y166_H170R_YF] to RLLRGYNQSAY [HLA-C_Y137_D138N], the phosphorylation enrichment falls from 0.637 to 0.538.

Compared with ASTDFYKRGDF [PDHA1_Y243_YF], RGFRQYAFDGK [HLA-A_Y140_D140Y_YF] is higher in phosphorylation enrichment: 0.374 for the first, 0.715 for the second.

First: EEEYEYMNRRR [ERBB3_Y1199_D1194E]
Second: DLDFTYIFPNI [PTEN_Y27_L25F_YF]
The phosphorylation enrichment of the first is lower: 0.324 for the first, 0.996 for the second.

Going from RPGGRYPVARR [SHANK3_Y1569_S1566G] to LKVDVYRRSHK [FUT3_Y222_G223R], the phosphorylation enrichment rises from 0.468 to 0.656.

First: QDRDLYPCPGT [RLF_Y671]
Second: KLQKKYGPIYS [CYP17A1_Y60]
The phosphorylation enrichment of the first is higher: 0.71 for the first, 0.361 for the second.

Going from TQPSPYAVYRF [RPGRIP1_Y823] to TDRNLYSKNLV [CFAP58_Y501_S496T], the phosphorylation enrichment falls from 1.22 to 0.555.

Going from EVTLTYATGIK [NFKB1_Y485_T489I] to QYRFIYMAVQH [PTPN11_Y515], the phosphorylation enrichment rises from 0.475 to 1.52.

First: ILKPDYQPLAI [HYDIN_Y1072]
Second: LVMFTYAIFGM [SCN1A_Y1684_I1683T]
The phosphorylation enrichment of the first is lower: 0.489 for the first, 1.78 for the second.

Compared with KKFPDYIQSAM [SGMS2_Y59_I62S_YF], KKGIVYVFNGR [ITGAV_Y404_I405V] is higher in phosphorylation enrichment: 0.348 for the first, 0.458 for the second.

Compared with SETDDYAEIIV [PTK2_Y397_D402V], EKIANYKEGTF [CLRN1_Y171_YF] is lower in phosphorylation enrichment: 0.83 for the first, 0.53 for the second.

First: IIEDPYYGNDS [ACP1_Y132]
Second: PEVCDYGLGGG [GSTO1_Y239_A236V]
The phosphorylation enrichment of the first is lower: 0.561 for the first, 0.575 for the second.

In the case of LLINKYGLSAH [SCP2_Y151], the phosphorylation enrichment is reported as 0.71.
